Data published in patent US20120108796A1 (Bayer, published 2012).

Molecular target: T1, human TFPI (tissue factor pathway inhibitor) (human, UniProt P10646 29-304, limits assumed)
T1 construct: bought protein, coated on ELISA plates or amine-coupled to a CM5 chip; also called hTFPI
T1 sequence (looked up): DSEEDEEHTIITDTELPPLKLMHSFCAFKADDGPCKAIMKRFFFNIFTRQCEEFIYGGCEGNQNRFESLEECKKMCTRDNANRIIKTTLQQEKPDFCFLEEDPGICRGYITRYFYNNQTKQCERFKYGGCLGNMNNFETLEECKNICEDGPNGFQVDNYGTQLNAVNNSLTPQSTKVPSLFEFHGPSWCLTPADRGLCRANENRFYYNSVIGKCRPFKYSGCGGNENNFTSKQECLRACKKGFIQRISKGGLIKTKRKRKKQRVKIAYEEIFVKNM
Experiment: competitive ELISA
Procedure: Briefly, MTP plates (either Mesoscale Discovery, L21XA-4 or Nunc maxisorp black, 460518) were coated with 0.04-2 lug/m1 either human or mouse TFPI diluted in phosphate buffered saline (PBS) or in coating buffer (Candor Bioscience GmbH, 121500), respectively and incubated over night at 4° C. After washing, plates were blocked with 3% bovine serum albumin (Sigma, A4503) in PBST for 1 hour at room temperature and the washing step was repeated. For binding of the antibodies 10-25 µl of culturing supernatants normalized to their respective antibody expression level (if not otherwise indicated) were added to the plates for 1 hour at RT followed by washing with PBST. Bound wild-type and variants were then either detected by an epitope tag specific antibody or a competition step was included. For competition, 50-300 nM competitor or free antigen was added and incubated for 20 minutes to 24 hours at room temperature. […] For signal detection in maxisorp plates 10 [tM amplex red substrate (Invitrogen, A12222) was added and incubated for 10 to 30 minutes at room temperature in the dark followed by fluorescence measurement. For the detection in MSD plates MSD read buffer T was diluted to 2× in H2O (Mesoscale Discovery, R92TC-1), added to the plates and the electrochemiluminiscence signal was detected at 620 nm using the Mesoscale Discovery Sector Imager 6000. […]

B1: 4B7 HC H107M LC F31I (Fab, V domains shown)
VH: QVQLQQSGPGLVKPSQTLSLTCAISGDSVSSNSAAWSWIRQSPGRGLEWLGIIYKRSKWYNDYAVSVKSRITINPDTSKNQFSLQLNSVTPEDTAVYYCARWHSDKMWGFDYWGQGTLVTVSS
VL: DIVMTQSPLSLPVTPGEPASISCRSSQSLVISDGNTYLNWYLQKPGQSPQLLIYKGSNRASGVPDRFSGSGSGTDFTLKISRVEAEDVGVYYCQQYDSYPLTFGQGTKVEIKR
notes: Fab; tags as m115; also called HC H107M LC F311 (so in the source)
B1 gave a variant/wild-type of 3.7 ratio.
